Literature values as cited in PMC8915186.

Biological target: IL-1R1 (Homo sapiens) (UniProt P14778)
UniProt P14778, sequence (P14778 18-569): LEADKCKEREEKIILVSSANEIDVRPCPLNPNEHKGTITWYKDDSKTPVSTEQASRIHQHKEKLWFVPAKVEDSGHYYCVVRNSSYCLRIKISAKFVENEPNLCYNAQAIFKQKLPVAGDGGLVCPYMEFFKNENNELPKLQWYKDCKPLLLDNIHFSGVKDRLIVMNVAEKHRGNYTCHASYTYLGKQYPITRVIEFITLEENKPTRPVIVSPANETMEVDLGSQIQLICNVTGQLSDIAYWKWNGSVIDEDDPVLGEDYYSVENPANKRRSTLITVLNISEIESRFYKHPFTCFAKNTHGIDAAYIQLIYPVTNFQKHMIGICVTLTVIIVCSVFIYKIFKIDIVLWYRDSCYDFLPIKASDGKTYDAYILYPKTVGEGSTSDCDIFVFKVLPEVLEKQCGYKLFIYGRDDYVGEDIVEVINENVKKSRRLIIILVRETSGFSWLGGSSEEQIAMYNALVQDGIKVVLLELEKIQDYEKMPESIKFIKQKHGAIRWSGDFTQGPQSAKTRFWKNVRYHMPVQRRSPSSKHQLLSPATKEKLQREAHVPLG

## IL-1β (from UniProt P01584)
  Kd: 2 nM
